Here are results for five molecules from PMC10293011 (Nature Cancer, 2023).

Non-standard residues stand in square brackets, D forms with d. No end group written: not given here. Phe(3,5-F2) = N[C@@H](Cc1cc(F)cc(F)c1)C(=O)O

Common to all, as to conditions: both partners purified
The target of test [1] is T1, TEAD2 (A217–D447), YAP-binding domain, His-tagged (human, UniProt Q15562 217-447).
T1 construct: The construct has a TEV site after the His tag; The tag is kept in the TR-FRET/HTRF assays (anti-His detection); Treated with 2.5% hydroxylamine; source: E. coli BL21 (DE3), autoinduction, purified (hydroxylamine treated, size exclusion); not shown: His6, N-terminal, kept
In words: 1D 19F NMR of the free peptides; 20 μM S2, 20 μM S3 and 10 μM TEAD2 in PBS (100% D2O), pH 7.4, 298 K; displacement by addition of 55 μM compound 2, GNE-7883 or pepYAP.

Test [2] concerns the target T2, TEAD3 (Q216–D435), YAP-binding domain, His-tagged (human, UniProt Q99594 216-435).
T2 construct: The construct has a TEV site after the His tag; treated with 2.5% hydroxylamine; source: E. coli BL21 (DE3), autoinduction, purified (hydroxylamine treated, size exclusion); not shown: His6, N-terminal, kept
In words: AlphaScreen or HTRF; TEAD–YAP TR-FRET: His-tagged TEAD (YAP-binding domain) with europium anti-His antibody, preincubated 30 min with small molecules; biotinylated YAP peptide (50–100) with streptavidin-XL665; 60 min, room temperature; read at 665 and 615 nm.

In test [3] the target is T1, TEAD2 (A217–D447), YAP-binding domain, …. As to the kind of experiment: AlphaScreen or HTRF; site 2/site 3-specific HTRF: His-tagged TEAD preincubated 30 min with compounds in 50 mM HEPES pH 7.2, 100 mM NaCl, 0.01% Tween-20, 0.5 mg/ml bovine gamma globulin, 1 mM dithiothreitol; biotinylated probe added for 60 min; europium anti-His and streptavidin-XL665; room temperature.

T1 sequence (Q15562 217-447): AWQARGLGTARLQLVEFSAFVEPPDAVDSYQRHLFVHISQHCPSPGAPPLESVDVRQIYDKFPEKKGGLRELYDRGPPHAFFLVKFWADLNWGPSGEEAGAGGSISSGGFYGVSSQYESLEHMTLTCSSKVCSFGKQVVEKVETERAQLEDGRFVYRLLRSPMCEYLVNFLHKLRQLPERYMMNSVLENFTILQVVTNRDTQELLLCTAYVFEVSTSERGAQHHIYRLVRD
T2 sequence (Q99594 216-435): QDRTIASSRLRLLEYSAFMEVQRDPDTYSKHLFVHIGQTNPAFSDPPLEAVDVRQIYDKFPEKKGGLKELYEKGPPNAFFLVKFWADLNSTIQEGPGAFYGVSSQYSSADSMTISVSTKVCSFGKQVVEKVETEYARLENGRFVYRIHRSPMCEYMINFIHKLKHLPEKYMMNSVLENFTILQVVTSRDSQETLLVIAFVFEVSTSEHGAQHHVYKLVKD

B1: S2, 19F-labeled YAP peptide (residues 59–81) (peptide)
peptide: Ac-GDSETDLEAL[Phe(3,5-F2)]NAVMNPKTANVP
modifications: not fully specified
notes: YAP residues 59–81; Phe69 is 3,5-difluoro-phenylalanine; also called peptide S2; source: synthetic peptide, bought: ABclonal
Consider B1, for which, in test [1], the binding result is “binds”.

B2: biotinylated YAP peptide (amino acids 50–100) (peptide, UniProt P46937 50-100, looked up)
peptide: AGHQIVHVRGDSETDLEALFNAVMNPKTANVPQTVPMRLRKLPDSFFKPPE
modifications: biotin (position not given)
notes: YAP (Yes-associated protein), amino acids 50–100; Held by streptavidin-XL665 in the assay; also called YAP 50–100
B2: the binding result in test [2] is on record as “binds”.

B3: pepYAP, YAP peptide (amino acids 60–100) (peptide)
peptide: DSETDLEALFNAVMNPKTANVPQTVPMRLRKLPDSFFKPPE
notes: source: synthetic peptide, bought: ABclonal
Turning to B3, the binding result in test [1] is on record as “binds”.

B4: biotinylated mouse vestigial-like protein 1 peptide, amino acids 20–51 (site 2 probe) (peptide, UniProt Q99NC0 20-51, looked up)
peptide: KTEWNAGSVIFTYFEGDINSMVDEHFSRALRN
modifications: also: biotin, position not given here
notes: mouse vestigial-like protein 1 (Vgll1), amino acids 20–51; also called mVgll1; Vgll1 peptide
Take B4: in test [3], the binding result was “binds”.

B5: S3, 19F-labeled YAP peptide (residues 80–100) (peptide)
peptide: Ac-VPQTVPMRLRKLPDS[Phe(3,5-F2)]FKPPE
modifications: not fully specified
notes: YAP residues 80–100; Phe95 is 3,5-difluoro-phenylalanine; also called peptide S3; source: synthetic peptide, bought: ABclonal
For the molecule B5, the binding result in test [1] is “binds”.
